We go through 2 substances from patent US20060067919A1.

This assay addresses truncated APC mutant in SW480 cells (human) (UniProt P25054). As to the kind of experiment: cell-based or functional assay.
Chain of UniProt P25054 (P25054 2-1337, change not shown): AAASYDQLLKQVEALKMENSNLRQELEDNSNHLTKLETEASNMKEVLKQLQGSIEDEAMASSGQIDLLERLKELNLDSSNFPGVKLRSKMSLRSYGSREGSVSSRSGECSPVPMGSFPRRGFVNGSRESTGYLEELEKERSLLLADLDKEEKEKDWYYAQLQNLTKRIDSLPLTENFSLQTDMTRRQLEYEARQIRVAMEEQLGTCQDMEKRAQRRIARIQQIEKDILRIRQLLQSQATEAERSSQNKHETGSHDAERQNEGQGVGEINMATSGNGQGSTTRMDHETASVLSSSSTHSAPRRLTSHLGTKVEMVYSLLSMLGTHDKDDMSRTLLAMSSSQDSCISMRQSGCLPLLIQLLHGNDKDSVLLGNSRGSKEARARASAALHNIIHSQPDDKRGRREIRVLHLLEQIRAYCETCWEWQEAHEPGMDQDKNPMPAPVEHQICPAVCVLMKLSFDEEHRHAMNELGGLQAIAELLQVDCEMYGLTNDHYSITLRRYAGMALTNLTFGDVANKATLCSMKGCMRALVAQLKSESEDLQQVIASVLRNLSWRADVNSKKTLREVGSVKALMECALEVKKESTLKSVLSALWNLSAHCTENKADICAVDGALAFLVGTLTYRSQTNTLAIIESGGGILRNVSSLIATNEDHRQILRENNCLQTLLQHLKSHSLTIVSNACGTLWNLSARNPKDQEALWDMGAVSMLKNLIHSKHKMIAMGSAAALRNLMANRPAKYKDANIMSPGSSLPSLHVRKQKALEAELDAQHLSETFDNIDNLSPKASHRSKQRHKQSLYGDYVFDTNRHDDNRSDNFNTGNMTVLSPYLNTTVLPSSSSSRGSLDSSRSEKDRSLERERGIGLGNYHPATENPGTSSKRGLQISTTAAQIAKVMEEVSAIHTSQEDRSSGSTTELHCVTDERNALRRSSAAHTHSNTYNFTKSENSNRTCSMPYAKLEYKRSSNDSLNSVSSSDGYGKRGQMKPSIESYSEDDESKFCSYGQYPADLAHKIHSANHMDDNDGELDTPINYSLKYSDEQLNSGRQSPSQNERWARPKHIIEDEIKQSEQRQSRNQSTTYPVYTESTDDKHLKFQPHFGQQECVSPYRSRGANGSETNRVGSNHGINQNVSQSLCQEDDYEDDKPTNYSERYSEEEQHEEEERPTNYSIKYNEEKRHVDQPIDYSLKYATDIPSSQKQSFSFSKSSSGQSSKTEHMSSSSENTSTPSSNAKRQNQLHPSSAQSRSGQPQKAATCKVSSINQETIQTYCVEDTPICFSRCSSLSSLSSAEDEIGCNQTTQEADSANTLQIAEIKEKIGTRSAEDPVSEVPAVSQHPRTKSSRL

In the case of “Asef-ΔDH (mutant that lacks the DH domain (GEF domain) of Asef) (from UniProt Q9NR80 1-619)”, the decrease of migration of SW480 cells is 40 % decrease. “Asef-ABR expressed in cells from a plasmid (from UniProt Q9NR80 73-126)”: the migration of SW480 cells relative to parental or Mock cells (% of parental or Mock cells) is 50.
